The record followed here is PMC10796598.

The test concerns the target synaptobrevin2 (syb2) All ItoA (rat) (UniProt P63045).

“synaptobrevin2 (syb2) All ItoA (from UniProt P63045 1-116) (natural protein)”: the mean open-state dwell time (<t (o-obs)>) of single fusion pores, ND5S(All ItoA) on t-SNARE BLM was found to be 36 ms.
